Measurements from patent publication US20180194839A1.

Assays:
BSA [1] = target: BSA (UniProt P02769); assay: ELISA, BSA wells, control Ab 1 µg/ml (control antibody not identified)
BSA [2] = target: BSA (UniProt P02769); assay: ELISA, BSA wells, control Ab 5 µg/ml (control antibody not identified)
[3] = target: recombinant mouse IL-17F (SEQ ID NO: 84) (mouse) (UniProt Q7TNI7); assay: cell-based or functional assay
[4] = target: recombinant mouse IL-17A/F (R&D Systems Cat#5390-IL) (mouse) (UniProt Q62386); assay: cell-based or functional assay
[5] = target: recombinant human IL-17A (SEQ ID NO: 76) (human) (UniProt Q16552); assay: cell-based or functional assay
[6] = target: recombinant human IL-17F (SEQ ID NO: 77) (human) (UniProt Q96PD4); assay: cell-based or functional assay
[7] = target: recombinant human IL-17A/F heterodimer (human) (UniProt Q16552); assay: cell-based or functional assay
[8] = target: recombinant mouse IL-17A (SEQ ID NO: 83) (mouse) (UniProt Q62386); assay: cell-based or functional assay
[9] = target: recombinant rat IL-17A (SEQ ID NO: 85) (rat) (UniProt Q61453); assay: cell-based or functional assay
recombinant rat IL-17A (SEQ ID NO: 85) (rat), sequence (Q61453 other isoform, or with tags, fused parts or gaps limits assumed): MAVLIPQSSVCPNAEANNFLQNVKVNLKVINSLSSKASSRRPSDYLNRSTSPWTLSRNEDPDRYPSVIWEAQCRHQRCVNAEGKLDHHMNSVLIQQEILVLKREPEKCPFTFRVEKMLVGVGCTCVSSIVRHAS

recombinant human IL-17A (SEQ ID NO: 76) (human), sequence (Q16552 other isoform, or with tags, fused parts or gaps limits assumed): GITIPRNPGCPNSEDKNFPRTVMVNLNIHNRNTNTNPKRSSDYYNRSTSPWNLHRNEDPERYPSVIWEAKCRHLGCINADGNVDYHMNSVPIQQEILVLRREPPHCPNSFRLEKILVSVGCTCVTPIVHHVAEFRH
recombinant human IL-17A/F heterodimer (human), sequence (Q16552 24-155 limits assumed, chain 1 of 2): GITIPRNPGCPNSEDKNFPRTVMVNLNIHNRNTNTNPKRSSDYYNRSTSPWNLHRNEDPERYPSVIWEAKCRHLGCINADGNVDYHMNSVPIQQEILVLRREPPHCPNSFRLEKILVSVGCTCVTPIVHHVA
recombinant human IL-17A/F heterodimer (human), sequence (Q96PD4 31-163 limits assumed, chain 2 of 2, further chain): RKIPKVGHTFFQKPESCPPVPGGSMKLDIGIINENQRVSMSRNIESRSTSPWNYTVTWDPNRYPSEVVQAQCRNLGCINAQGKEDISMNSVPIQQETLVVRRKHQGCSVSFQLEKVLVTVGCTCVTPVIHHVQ
recombinant human IL-17F (SEQ ID NO: 77) (human), sequence (Q96PD4 other isoform, or with tags, fused parts or gaps limits assumed): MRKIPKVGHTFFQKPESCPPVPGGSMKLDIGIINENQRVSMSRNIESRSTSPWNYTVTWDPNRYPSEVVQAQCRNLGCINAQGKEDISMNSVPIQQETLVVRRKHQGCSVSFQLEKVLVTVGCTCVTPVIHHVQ
BSA, sequence (P02769 25-607 limits assumed): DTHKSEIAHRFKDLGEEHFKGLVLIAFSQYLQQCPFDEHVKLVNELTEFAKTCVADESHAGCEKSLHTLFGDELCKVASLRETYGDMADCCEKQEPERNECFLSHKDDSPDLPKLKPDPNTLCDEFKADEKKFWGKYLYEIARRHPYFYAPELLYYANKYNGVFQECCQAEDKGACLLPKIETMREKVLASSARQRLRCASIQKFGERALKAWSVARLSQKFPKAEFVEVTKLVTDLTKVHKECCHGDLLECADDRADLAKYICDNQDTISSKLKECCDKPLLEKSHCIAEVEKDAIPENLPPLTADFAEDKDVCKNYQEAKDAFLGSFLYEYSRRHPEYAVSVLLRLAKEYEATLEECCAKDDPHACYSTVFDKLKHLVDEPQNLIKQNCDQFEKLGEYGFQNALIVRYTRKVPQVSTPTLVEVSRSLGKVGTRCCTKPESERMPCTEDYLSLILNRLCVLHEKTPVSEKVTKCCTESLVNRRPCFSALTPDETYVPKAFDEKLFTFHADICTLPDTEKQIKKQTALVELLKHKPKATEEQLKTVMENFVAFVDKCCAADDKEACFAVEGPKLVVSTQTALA
recombinant mouse IL-17A/F (R&D Systems Cat#5390-IL) (mouse), sequence (Q62386 26-158 limits assumed, chain 1 of 2): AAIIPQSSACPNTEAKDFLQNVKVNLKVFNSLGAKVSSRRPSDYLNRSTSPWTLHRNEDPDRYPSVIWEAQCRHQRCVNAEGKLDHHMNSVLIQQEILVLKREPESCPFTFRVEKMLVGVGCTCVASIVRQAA
recombinant mouse IL-17A/F (R&D Systems Cat#5390-IL) (mouse), sequence (Q7TNI7 29-161 limits assumed, chain 2 of 2, further chain): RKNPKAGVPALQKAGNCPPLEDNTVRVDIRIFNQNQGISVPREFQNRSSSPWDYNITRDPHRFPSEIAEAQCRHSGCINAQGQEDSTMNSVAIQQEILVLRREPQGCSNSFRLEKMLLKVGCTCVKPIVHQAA
recombinant mouse IL-17F (SEQ ID NO: 84) (mouse), sequence (Q7TNI7 other isoform, or with tags, fused parts or gaps limits assumed): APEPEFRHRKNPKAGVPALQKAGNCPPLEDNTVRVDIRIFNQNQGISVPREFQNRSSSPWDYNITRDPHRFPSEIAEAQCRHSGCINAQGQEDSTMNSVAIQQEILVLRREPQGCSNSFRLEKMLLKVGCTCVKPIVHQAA
recombinant mouse IL-17A (SEQ ID NO: 83) (mouse), sequence (Q62386 other isoform, or with tags, fused parts or gaps limits assumed): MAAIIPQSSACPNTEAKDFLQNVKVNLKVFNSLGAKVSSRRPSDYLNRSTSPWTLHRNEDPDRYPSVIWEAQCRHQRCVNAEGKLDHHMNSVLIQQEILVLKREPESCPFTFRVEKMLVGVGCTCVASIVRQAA

Control antibody (not identified for this antigen)
O.D. (BSA [1]): 0.149 O.D.
O.D. (BSA [2]): 0.01 O.D.

Simulect® (antibody)
IC50, mouse KC secretion by CMT-93 cells; stimulus mIL-17F (30 nM) [3]: > 3000 nM
IC50, mouse KC secretion by CMT-93 cells; stimulus mIL-17A/F (3 nM) [4]: > 3000 nM
IC50, hu-GRO-alpha secretion by BJ cells; stimulus IL-17A (30 pM) + TNF-α (6 pM) [5]: > 3 µM
IC50, hu-GRO-alpha secretion by BJ cells; stimulus IL-17A (1 nM) [5]: > 100 nM
IC50, huIL-6 secretion by BJ cells; stimulus rhuIL-17A (30 pM) + rhuTNF-α (6 pM) [5]: > 3 µM
IC50, huIL-6 secretion by BJ cells; stimulus rhuIL-17A (1 nM) [5]: > 100 nM
IC50, hu-GRO-alpha secretion by BJ cells; stimulus IL-17F (10 nM) + TNF-α (6 pM) [6]: > 3 µM
IC50, hu-GRO-alpha secretion by BJ cells; stimulus IL-17F (30 nM) [6]: > 1000 nM
IC50, huIL-6 secretion by BJ cells; stimulus rhuIL-17F (10 nM) + rhuTNF-α (6 pM) [6]: > 3 µM
IC50, huIL-6 secretion by BJ cells; stimulus rhuIL-17F (30 nM) [6]: > 1000 nM
IC50, hu-GRO-alpha secretion by BJ cells; stimulus IL-17A/F (300 pM) + TNF-α (6 pM) [7]: > 3 µM
IC50, hu-GRO-alpha secretion by BJ cells; stimulus IL-17A/F (3 nM) [7]: > 100 nM
IC50, huIL-6 secretion by BJ cells; stimulus rhuIL-17A/F (300 pM) + rhuTNF-α (6 pM) [7]: > 3 µM
IC50, huIL-6 secretion by BJ cells; stimulus rhuIL-17A/F (3 nM) [7]: > 100 nM
IC50, mouse KC secretion by CMT-93 cells; stimulus mIL-17A (1 nM) [8]: > 3000 nM
IC50, mouse KC secretion by CMT-93 cells; stimulus rIL-17A (1 nM) [9]: > 3000 nM
